Experiment: soluble fraction after stress (log2 fold change); higher = more stays soluble; pooled small domains, quantitative proteomics
Conditions: stress: 75 degC
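Further: 20 min heating vs room temperature control held 20 min.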

| Sequence | soluble fraction (log2) |
| --- | --- |
| HMLEQLTPRELKVLQALAQGRQNKEIAAQLVISERTVKFHVSAILSKLNVGNRTEAVTVAAQRGLISL | -1.6 |
| HMLEQSYYEKTDEIIELHGAKASSLIPVMQDVQAEYRYLPGELLSYIADKLGIPLAKAYSVATFYENFS | -0.282 |
| HMLERKFGTSLEIKSLSKFLIENNYKKNAKYLNKLIQVLGTRSENRIIKTFFKQFPEIENIFRNQL | -0.612 |
| HMLETADDAKRFLGAIISEKKAENLLRVYPDIIERIVAGKPVDLSLVKGIKQKTFDKLRQKVISHYSMY | -0.0346 |
| HMLETHRRRQIILSLLRESGMLDVDEVAARLVVSPNTIRNDFNALAAEGLLRRIRGGATLAEP | -1.45 |
| HMLFKNASGTVVSRIQSQVDGQINIRTGSGNAPDYAFVAKPDGAVELYHNGTKQFETGSSGVLLP | -0.406 |
| HMLFQQPATMIGKIGVAMSDLRPSGKIKIDDEWYDGQSEGDYILKGQEIIVVQVMNAYLIVRL | 0.0841 |
| HMLFRGNGFNTLYDKQLRITQQGEFKDGRLWDGKYYRYSKAGELVRIEIYEQGRYAGNGVITDEDKA | -1.06 |
| HMLFSDSDLKSLLDKDISYVIEMYKAASKEQKRIISDMVAQKVMEKKYIDANILIQLGELTGINYMDL | -1.33 |
| HMLFSEKLKQAMQDLHLNQIQVVGLTGKSKGSISQYISGKQVPSEATQRDIAISLGLEENYFSKK | 0.701 |
| HMLFYSDLVRLISFAEATLGKNEFETWYMSHHQGMKYTEIAIALGISVRTVEDRIARTKNHFRKI | -0.68 |
| HMLGAGFDSDLTARENIFLNGALLGHSRAVMRGYYDDIVNFAELHDFMDVPVKNFSSGMTSRLAFSIATIG | 0.236 |
| HMLGARIAALRRQAGMNQGELAKKLGISPSTVGMYEQGRREPSAEMLVRLAEAFSVSTDFLLT | -1.1 |
| HMLGERIRRLRKEMGMSVTELARRVKTSPSYISEIEKGEKTPSLNLLVRIASELRTGIDYLTGL | -0.922 |
| HMLGIGANVQKIAQERKISLKELSRRAGIPYTTIYNMVKRDSSRVSPENLQKLADALGVEIGKLYG | -0.24 |
| HMLGSQQAYTDALRLTGLPVDIEVIESDRLPFLIPMRYSLDQHLIEVNVRYPDTRAIRVQQMVEELFHA | -0.631 |
| HMLGVKKFGGEAVIAGNIILRQRGTKWITGSNVGIGKDHTLFAKIEGYVVFERMRGRDGQQQISIYP | 0.0286 |
| HMLGYQALASAFRSKVEAGIWPIGEAIPSEARLSKEYGVAVGTIRQAIAELAEEGILIKRHGKSTMVSSG | -1.49 |
| HMLHEFSGVVVSILADTGPSTLKQLHRSLISSDVKMDEKELMQILDEALSSGSVTSHRKGRYLYYSANK | -1.71 |
| HMLHIKKGDTVIVNAGESKGQQGKVLEVLVGKERAIVEGVNMVSKHTKPNAKNPQGGIVKKEAPIHISNLQ | 0.154 |
| HMLHPLLWAVDEPTPVTVRTRPEYVPDVVRWLMQPESQREHDGVVDLRYTVTHRAAFRSRIYVLGTRVTIP | 0.114 |
| HMLIADADSLRKQIETVLANAPNEVAAYRGGKETLMGWFVGQIMRATGGKADPKLTREILAELLQ | -0.00264 |
| HMLIADSDALRSQIESILNGNPNEVASFRAGKESLMGWFVGQVMRSTGGKADPKRTRELLQELLTK | -0.0249 |
| HMLIDSEILKKTNKITIFLIYAFFSEYLINKEKKKILIGEYIKLSKDFLTIEEVKYFNHLLDDISK | -0.131 |
| HMLIDSNNYFFYKVKPKEGFYSLQKKLGVNRSEIEKHNPSLINEVLKEGMILKIPKYLLNFDLN | -1.08 |
| HMLILTWNYPYEYPMMMRSFLQEIGISRTFLAHIKSNGELLINGRHEIVLKTLQPGDVLTMVIPPSG | -2.13 |
| HMLINLGPRIRKERRSKGISQSDFSKNLGISASYLNLLENGRRTLTVPLLIKIGNELNLSLKDL | -0.125 |
| HMLISAESVKRRLEMIRHLILLGDYEDVTAQVIKLNPAANEYKLTPIIEELNGGKYQEALEKINSYLSKF | -0.839 |

| Sequence | soluble fraction (log2) |
| --- | --- |
| HMLISKNLLGFTIKNTSGVTFGTLKDIMWLPSNDVYVIDNNGKEYLIPVISEIVKSINYDKGSITIFP | -0.4 |
| HMLKASEVLPYVFTDKFFIDDLNLKQDQILGFLEYIDSKLPSQKLLQVSQQFQLIDFLINESKNYKNQ | -1.68 |
| HMLKDININVTGLDQISNAKLINNLNLLKMNNLFFLDEKKIKKILNSNNLIEKFFIFKKYPSTLDIKVYKT | 0.177 |
| HMLKHNLLSELSRIEGVGAVKRKALMDKFGTVENIKRASEEELSEVAGIGPTLARTIKEQMNKDE | -0.133 |
| HMLKKRKPMSGVGVIVKGMLTGTVTGTDGSYALKARPNDELSFSFLGYKTQEVFVGSKSTIDITLVDEA | -0.111 |
| HMLKLEEIQPNATVRGILPDALITVVNVKWFGSEALELTYKDTSGRVANQLLFRDDQPRLEIVE | -1.98 |
| HMLKLEPYTINEINSLQELYDLGNVRALETLISIYKDKNQVYDTRFYVLDILSKYDNPLIQEALEESITN | -1.39 |
| HMLKLPVEYLNLKYQLMHATSLDKPNNLMKLDEKLGKIIDVYYDDLPVDEQRVVDILQSKLYSY | -0.489 |
| HMLKLYILTDGKNYVMDDPIHPGRVMYSTSPVNAKKFTFKQARALLNNKSKKLSWIRSFNMVDDSSGEKI | -1.44 |
| HMLKREDEVIVVAGKDKGKRGTITQLVGDDRVIVAGVNMVKRHTKPNPNLGQPGGIVEREASLHISNV | 0.244 |
| HMLKVHPRDQEENRLLLLKGERLYEESTGDTRVMIDMWLRKFEEALNSRSRENIEDARRELKEQLAELDN | -0.185 |
| HMLLAPLRLGAAPDIKAQAPLATILARHNGEMEAKDLWQRFGGEIDAFYLQLKTEVAHGWIVEPEPA | -3.01 |
| HMLLELINLQVKILENEELKIIGKVIDLENEKNNLLVIELLKDQKKVLVPFVKEIVPLIDIKNNFIMINPP | -0.903 |
| HMLLFNVADIVKRAKRVLNFKTDAELAAYLGVSRPTLSNWIARNGIDFPLLLEKLKEIDYNWLLVGKGKPE | -2.74 |
| HMLLGPDALTNRELDVLALLERRLSNKEIGALLYISPRTVKRHTINIYQKLHVNNRRAAVAQAKALGLMPD | -1.9 |
| HMLLKIRPDLDGNEIMKLLNIAAGPNVGKAYEHLLELRLEHGPLGKERAEQELMNWWSARSQ | -0.898 |
| HMLLNSLIDTLAAEKATVVPGTEVFKLYDTYGFPWELTEEIASERGFTIDHEGFEAAMKEQRERAREARV | -0.104 |
| HMLLNTSQLKELYNRYDKKNSSLISIPFSAISDEPLKFYKWYAALFQIELNVKAFADVDSKQIIIYKGTK | -3.37 |
| HMLLRSEDAIELGKSQLEDALAPYKIETLDTGTVQQLLDSLKLNSLESLYQEIGLGNRMSTIIAHRLLGE | -0.216 |
| HMLLSFYGTYGNVKLTGKELEDLQKEFPFDYQARIDRLSAYMESSGRKYHSHFATIRSWAQDDAKKN | -2 |
| HMLLSYDIAEYIEKYIHEHGLQPGDRLPTERELAAQLDITRVSVRQGYKRLLDQGVIRSENGYYVNPPR | -1.68 |
| HMLLTDGLERRIDGDKNLHIRISLPMLVKGQIKLAKSGNNESTVKGIFKIESYPGSHPRDVVTEIIEG | -0.236 |
| HMLLTHPKRVFTYELIMELVWNEDYTFYSKKAVSNHMSNLRKKLKVTPDALDYIKNIVGVGYKFEA | -1.11 |
| HMLMKKTITHEIELLEFLKQIFPQSSTNKLRKMLSNGRIKINSEIVHKAKYKLQENDTFELLDNPT | -2.61 |
| HMLNEIMDTINKYISDKRNNKVAQNILSAALDELNSQIRVGLKDLNPHSIEEFKENVINSPYIEFEQG | -0.0112 |
| HMLNEWIDYIDEHIKEELTAKNLATVFGYSERHFRNVFQIYYDIKLNDYIRRRKLYFAAQELKKG | -1.27 |
| HMLNMSVYDKQLLRAVENNPFISQRELARELHWNVDRVKYYMKKWKDKGGLRHVGSSHKGYWEVLVRIEEK | -0.891 |
